Experiment [1] addresses human CD19 antigen on the surface of B lymphoma cells (Raji, Daudi, IM-9, Namalwa) (human) (UniProt P15391). Nature of the experiment: flow cytometry on Raji cells; control antibody at 5 µg/ml. For orientation: Flow cytometry measures light scatter and fluorescence of single cells or particles in a stream.
Experiment [2] concerns the target human CD3 (CD3ε molecule) on the surface of Jurkat T cells (human) (UniProt P07766). Kind of experiment: flow cytometry on Jurkat cells.
The target of experiment [3] is human CD19 antigen on the surface of B lymphoma cells (Raji, Daudi, IM-9, Namalwa) (human) (UniProt P15391). Kind of experiment: flow cytometry on Raji cells; control antibody at 0.185 µg/ml.
In experiment [4] the target is human CD3 (CD3ε molecule) on the surface of Jurkat T cells (human) (UniProt P07766). Nature of the experiment: cell-based or functional assay.
For experiment [5], the target named is human CD19 antigen on the surface of B lymphoma cells (Raji, Daudi, IM-9, Namalwa) (human) (UniProt P15391). Kind of experiment: flow cytometry on Raji cells; control antibody at 15 µg/ml.
The target is the same in experiment [6]. Nature of the experiment: flow cytometry on Raji cells; control antibody at 1.667 µg/ml.
Experiment [7] shares this target. Nature of the experiment: flow cytometry on Raji cells; control antibody at 0.556 µg/ml.
For experiment [8] the target is unchanged. Nature of the experiment: cell-based or functional assay.

The record followed here is patent publication US20190284279A1.

The term EC50 denotes the concentration that produces a half-maximal response.

On to “OKT3 monoclonal antibody (mouse anti-human CD3 monoclonal antibody)”, for which the average fluorescence value in experiment [1] is 3460; in experiment [3], 3860; in experiment [5], 3710; in experiment [6], 3570; in experiment [7] it was 3390. The substance also gave an EC50 in experiment [2] of 6.09 nM. This substance showed an ED50 of CD69 expression (Mean FL2-A) on Jurkat E6-1 cells co-cultured with Raji cells (10:1) in experiment [4] of 1280 ng/mL.

In experiment [8], “BLI-193 (tandem single chain antibody structure, blinatumomab) (bispecific antibody)” displayed an ED50 of killing of Daudi cells by human PBMC (Fluo 3-AM release) of 2.57 ng/mL, an ED50 of killing of Namalwa cells by human PBMC (Fluo 3-AM release) of 0.107 ng/mL and an ED50 of killing of Raji cells by human PBMC (Fluo 3-AM release) of 0.0868 ng/mL.
